Values quoted from earlier work in article PMC9636575.

Target: MqsA 1-76 (Escherichia coli) (UniProt Q46864)
Sequence (Q46864 1-76): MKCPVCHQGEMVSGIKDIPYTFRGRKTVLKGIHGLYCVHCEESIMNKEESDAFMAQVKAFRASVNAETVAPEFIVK

Sequence of MqsR (Q46865 whole entry): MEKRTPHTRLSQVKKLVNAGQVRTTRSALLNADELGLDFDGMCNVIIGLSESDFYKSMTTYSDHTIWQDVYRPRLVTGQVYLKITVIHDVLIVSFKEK

Question: For MqsR (from UniProt Q46865), which Kd is on record?
Answer: < 1 nM
